For 1 substance, binding signal results are on record in article PMC3406103.

Some results are limits rather than exact numbers.

The data set concerns C/EBPβ (endogenous, HaCaT nuclear extract). The experiment in a line: EMSA. The settings on record: 10 mM Tris-HCl pH 7.5, 50 mM NaCl, 1 mM EDTA, 15% glycerol, 1 mg/ml BSA, 25 µg/ml poly(dI-dC), 11.5 mM DTT, 26 µg/ml aprotinin, 1.5 mM PMSF, 0.5 mg/ml salmon …; scale: % of pLXSN control, normalized to C/EBPβ level. For orientation: A gel shift assay detects complexes by their altered migration in electrophoresis.

Turning to CCL20 promoter nt 734-748, the binding signal is below 50.
